The text below walks through data of a protein production outcome set (Wang et al. 2014).

The nature of the series: label from the status in PepcDB records.
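Note: failed if final PepcDB status was selected cloned or expressed and not failed if soluble or beyond.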

On to “MKKLYRYVLFTFLLIFSQLSFANWDLTDNQPIEISAQATNIEADIRALPEQHFFSNNDYAQVKRLLSTTISQQKEHATALKEALATYREDSSNQNWIAVETVHQSLTSLNLSKEQLLKLTNSTTREQLTGFGPYGVTQFYSELSITKLNIEYYLHYQIRSFKNLLKDLTISPVPIISVIFKVLCVFFIFSWWMKNSSRLINDFKTSKLENGTKPNFFIRSIWYLTRAHKAIAWLLLITVTLRIVSTLPSLQHLIFLEIFTWWILGGSIAVSFILEFIYRNSKHNKKEIIALRLSTVRHYVWGIIVAGVILQISSRTLGQGTIYAWINSLMYLFFVLLTIHTLRKWKPTVFERIERVDPLPLSIQWAKRNQKTFLISIAATACGAAWLSWRALQHSIIALLSQYAAFSHALAYLFRIEVAKQTEVAREQSNLVRVKGTAAFDYIAPGSEDSELIEDYAKDEMSALSRYLLTESPAVCVLSGERGVGTTTLLNRILNKVKNATPIYINCPYDGYSALLPELAKQLGLDEESSERDILQYLRNSDTCYLLAFDSAQRLVKPKVNGLADLMKLTNLLRRARKSHRVVLAIEKSCWRFIDRARGERLLFDLVTFMPKWDEKQIGQLLESRITLSEGQPTISFDGLVLPRQWDEENLTEEERARNGFYRILWDYSDGNPTVALRFFRLSLHRDKDTDAILVRLFRAPHSDDLETMPKPMLAVLRSIVQLEVASPADVCDCSRLSMAEVISTLRYFQSRGYIEWSDDKARISDHWFRHITNVLHRQHLLVK”, for which the protein production result was “failed”.

In the case of “MKKNYTYPFTAIVGQEEMKLALILNIINPAISGVLIRGEKGTAKSTAVRALADILPEIEVIAGIPFNLAPDEDDETIRECFTVTGHAMPDPDNLEVTMHKVQVVELPVGATEDRVVGTLDLEHALKTGEKRIEPGLLAAAHRGILYVDEVNLLDDHVVDVLLDSAAMGVNTIEREGVSFSHPARFTLVGTMNPEEGELRPQLLDRFGLCVHVGGIADPQDRVTVMERRFAFEQDQERFCSEWQGESSKLAERIVAARELYPSVTISREHLLGIAKSCLKVGVDGHRGDIIIMKTAKTIAAWEGRHCVGSDDIDRAVALALPHRIRRQPLQDMVMDVGSLLGSKCTTN”, the protein production result is listed as “failed”.

“MKKQIALVALLFLGMSCFNASAQFKKFNLGKAIQAGKDAAQAISLSDADIAAMSKEYMEWMDKHNPLTKPDSEYGKRLERLTGNIKEVDGMKVNFGVYEVVDVNAFACGDGSVRICAGLMDVMTDEEVMAVIGHEIGHVIHTDSKDAMKNAYFRSAVKNAAGAASSQVAKLTDSELGAMAEALAGAQYSQKQEYEADAYGVEFCVKNNIDPYGMYKSLNKLLELSNGAPASSYMQRMFSSHPDTAKRVARAKELADKYKQLEHHHHHH”: the protein production entry is “not failed”. For the sequence “MKKQRNLRSMAAQAVEQVVEQGQSLSNILPPLQQKVSDKDKALLQELCFGVLRTLSQLDWLINKLMARPMTGKQRTVHYLIMVGLYQLLYTRIPPHAALAETVEGAIAIKRPQLKGLINGVLRQFQRQQEELLAEFNASDARYLHPSWLLKRLQKAYPEQWQSIVEANNQRPPMWLRINRTHHSRDSWLALLDEAGMKGFPHADYPDAVRLETPAPVHALPGFEDGWVTVQDASAQGCMTWLAPQNGEHILDLCAAPGGKTTHILEVAPEAQVVAVDIDEQRLSRVYDNLKRLGMKATVKQGDGRYPSQWCGEQQFDRILLDAPCSATGVIRRHPDIKWLRRDRDIPELAQLQSEILDAIWPHLKTGGTLVYATCSVLPEENSLQIKAFLQRTADAELCETGTPEQPGKQNLPGAEEGDGFFYAKLIKK”, the protein production result was “failed”. With “MKKRIIFFLILLVSFRIFADYKSEYDNLLSARNIKGIAALLPKWEKAEPKNPELYIAYFNYYLLKGQRSTQSLDTYKKDNTNSLALVDQKTNKIAGYLNNNIWYEKEDVDKALSYLEKGLKFGKNRLDMYFGRIHILGEIGEYEKQSQKIIEVLKLGKEINHKWLWSMNEVIPSSESEHFFLISINEYYKNWLQKSSPQTLNAAEKTGEAQLKLYPKNIEVHNYLSLAYIGQGKFKEALNVLLKADKLANEDYVIIFNMGRCYEALKQYDKAKECYLRMKKNPNKQVQDMADQKLSELKKLTK”, the protein production entry is recorded as “failed”. As for “MKKRIKELTDLLNRYRYDYYTKDAPSVSDSDYDKLYRELVTLEQSYPEYVLQDSPTQQVGGTILKGFEKYRHQYPLFSLQDAFSREELDAFDKRVKAEFPNATYLAELKIDGLSISLSYENGFLQVGATRGDGNIGENITENIKKIKDIPYQLSEPLTITVRGEAYMSRQSFKAINEARQENGETEFANPRNAAAGTLRQLDTSVVAKRQLATFLYQEASPTARNQQNEVLAELADLGFSVNPYYQLTSSMDEIWDFIKTIEAKRDQLAYDIDGVVIKVNSLAMQEELGFTVKAPRWAIAYKFPAEEKEAEILSVDWTVGRTGVVTPTANLTPVQLAGTTVSRATLHNVDYIAEKDIRIGDTVIVYKAGDIIPAVLNVVMSKRNQQEVMLIPKLCPSCGSELVHFEDEVALRCINPLCPSLIQRSLEHFASRDAMNITGLGPAIVEKLFLAGFVHDVADIYQLTKEDFMQLDGIKEKSADKLLAAIEASKSNSAEKLLFGLGIRHIGSKVSRLILEVYGDISALLTAKEEEIARIDGLGSTIAQSLTQYFEQKTAAILVDELKTAGVNMHYSGQKVNSDAALFGLTVVLTGKLNQLNRNEAKDKLEALGAKVTGSVSKKTDLVIAGSDAGSKLEKAKSLGIRIEDEDWLRQL”, the protein production entry is on record as “failed”. In the case of “MKKRNISVPSKAYLALIIATLCWGGNTVAGKLAVGHISPMAFTFLRWVLAVAIIFAISVPQLIKDWPVVKQRLPYFFVLGSVGYTAFNVFLYTALQHTSAINAAVIQAGIPMVIFVLNFVLFRTRVLFGQIAGFCLTISGVALLASHGDPLSLLQLEMNVGDAVMLLAVLVYAIYTVILRWKPAVDWRTLMAIPAFFALLTSVPLVFFEMSRESLIWPDQKGWMLVVYAGIFASLIAQILYIKGVEQIGANRAGLFINLVPVFGTLLSVFVLSETLHTYQIAALFMALAGIAVAERKKSPAS” it was “failed”.

“MKKSKHLKRPYLKRSHLKHSDKASSFKGLLKKEDNVISLENFKPKESEDLLENFSNKKDMQELLGLLNQFILQSYKVEKEFKDYKALYEWVIEILPQAIWVVNENGSFFYKNSLANQSHEVFNKAKLENFNTEIEHENKSYLVQQNSIQGKQIITATDISAQKRQERLASMGKISAHLAHEIRNPVGSISLLASVLLKHANEKTKPIVVELQKALWRVERIIKATLLFSKGIQANRTKQSLKTLESDLKEALNCYTYSKDIDFLFNFSDEEGFFDFDLMGIVLQNFLYNAIDAIEALEESEQGQVKIEAFIQNEFIVFTIIDNGKEVENKSALFEPFETTKLKGNGLGLALSLQVVKAHEGSIALLENQEKTFEIKILNAS”: the protein production entry is reported as “failed”. As to “MKKTLILILCLFLCTVSFARKRVKVACVGNSITYGIGVSDPDKESYPARLQQMLGEGYTVERFGKPGATLLNKGHRPFMQQKEFKDALAFAGDVVVIHLGVNDTDPRDWPNYRDFFIADYRALIDSFRVANPECRILIARLTPIADRHPRFESGTRDWHDEIQLAIETIAKYAQVQLIDFHAPLYPYPFMLPDAVHPDKEGAAVLAKTVYEGITGDFGGLQMPEIYTDNMVLQHGRLLTIQGKADAGEKVTVSIDRQKLQAVTGADGKWAVDVRPLKAGGPYTLTVSTEKRKLVYENVLAGEVWLCSGQSNMEFYLNWSATAAQDVPQAANSNIRFYDMKARWRTDAVEWDASVLDSLNHLQYYKDTRWTVCSPETAGNFSAVAYYFGKKLQDSLQVPVGLICNAIGGSPTEAWIDRSTLEYRFPAILRNWMQNDFIQDWVRGRAALNVKQSSNKLQRHPYEPCYLYESGIRPLEQFPVKGFIWYQGESNAHNREAHEKLFGLLVESWRKNWGDAELPFYFVQLSSIDRPSWTWFRDSQRRLMAEIPHTGMAVSSDRGDSLDVHPKQKREVGERLAAWALNKTYGYKNVIPSGPLYKSVVFSGGAAYISFDYAEELSTSDGKSLRTFEVAGDDGLFYPAQAVVENGKIKVWSDKVKEPETVRYGWQPFTRANLVNGAGLPASTFRAE”, the protein production entry is recorded as “failed”. In the case of “MKKTPIVFILFLLNFICLGQADTTMLLSDKAVQIEGTDAVNDLYNFKFEKAEGYFLYLKSQHPNHPMPYFLMALSNWWKMMPYIDNNDYTNAYEKEFLYYIDQTIEKGEEQFKADDQNVEAAFFLCAAHGFKGRYFSENKGYVKAAFAGKSALHYLTYTKGKGDLNPEFLFGESIFNYYAEWIKEEYPLLKPLVGLFPKGDKAVGLAQLKECATNAFYTRIEAQYFLLRIYTNEENNSRAAYPYAKYLSENFPDNPYFQRVYARLSFELGYYAQCEKICYDINYKVNIEMPGYEVNTGRYAAYFLGRILYEKSDLEKSKFYLLKTAAFAESGNMNKMGYSLSAYYYLGMIEVKSQNYSEAEKFFLKVIDLGEDKQDNSAVYNYSYASYQLASVYEKQQNTKRAESFYKDAIKRVKKLDEKSYASTIKEITANSEAGLERLKQPKK” it was “failed”. In the case of “MKKVKIFSIVLPLIYTSFMLYVTYKVYNGLRYRSLDLGIFTQSLYSLSEGKLFYNTVEFQLYEVHTHFGVHFQPILFLLTPLFLIKRDAYTLIIIQTLALGTSVYLAYKLAVKELGEKKGFALAILYSCNSSLISINVFEFHPVSLAVPLFLLAYKFLREESPLFYVISTLILLTKEDAFLGVLSITAWKILKEGLSVETLKKNKKIILFTILTLLYGIFTIKVVIPKFGGEYIYSNLYMEPRLDRRKLTYFLLFNLTFALLPLLNFFAILSLLPPWLECLLASRESQTMFGFHYPYMLVPLSFVISLDVAKKLDWKILRNLAILGVISSLITLPITNHLPKEQNPLVYPTVITPIPGKEASWEAIKITRELEGPIYTQPEFYPALATRLDVYVYPKNVKPKIILVNLNTYYGRRALERIKAFRVNLSEYKKVFEKDGVLIMVRKD” it was “failed”; in that of “MKKWFPALLFSLCVSGESSAWNNIVFYSLGDVNSYQGGNVVITQRPQFITSWRPGIATVTWNQCNGPEFADGFWAYYREYIAWVVFPKKVMTQNGYPLFIEVHNKGSWSEENTGDNDSYFFLKGYKWDERAFDAGNLCQKPGEITRLTEKFDDIIFKVALPADLPLGDYSVKIPYTSGMQRHFASYLGARFKIPYNVAKTLPRENEMLFLFKNIGGCRPSAQSLEIKHGDLSINSANNHYAAQTLSVSCDVPANIRFMLLRNTTPTYSHGKKFSVGLGHGWDSIVSVNGVDTGETTMRWYKAGTQNLTIGSRLYGESSKIQPGVLSGSATLLMILP”, “not failed”.

Consider “MKLAMKLRTRLFLSISALITVALLGLLLGLVSVMQMARTQESLIQHNFAILDLGLKLRQNLGDQLVLMTGATRNPPELEKIQRQFEELLEEASAQDTQEDVRNGLEGTWVDYRRFIDALKQFGTDPRGIRGNPQLSESFDSLRNGLLNVHRKALENISSAEINSRDRALWIAGLLGLVGLAVLCIGFVTAHGIARRFGAPIEALAKAADRIGEGDYEVTLPISSAAEMNLLTRRFGIMAEALRQHQATNVDELLAGQQRLQAVLDSIDDGLLMIDRQGHLEHLNPVAQRQLGWDESRLGQSLGEALSRPELDEQLHLVLRGGTLERAPEDLAIDIDGESRLLTYSMTPVSHTKGHILGAVMVLHDVTEQRAFERVRSEFVLRASHELRTPVTGMHMAFGLLQERLHFAPESREADLLNTVTEEMQRLMQLINDLLNFSRYQNGLQKLKLAPCSIETLLEEARARYEGQAQEQEIVLMLDIQEPMPRLHADQSQLERVLDNLLDNALRHTPPNGLIRLQARRHGERAIISVEDNGEGIAYGQQGRIFEPFVQVGRKKGGAGLGLALCKEIVQLHGGRMGVYSRPGQGTQFYMALLL”, for which the protein production result is recorded as “failed”. With “MKLATKKNGTRDGLLMVVSKDLTRCVPATEVFHPRNLAPTMQVALDNWEAVAPQLEEIYTALNNGTVAGFEEFEAHYCESPLPRAYQWADGSAYVNHVELVRKARGAEMPESFWTDPLMYQGGSDAFIGPCDNIEFASDEWGIDFEGEVAVVTGDVPMGASIAEAQESIRLIMLVNDVSLRGLIPAELAKGFGFFQSKPSSAFSPVAVTPDELGDEWYENKVHLPLVSTYNHKPFGRPNAGVDMTFDFADLIVHATKTRPLSAGAIIGSGTVSNKQGTDHGTSIEEGGVGYSCIAEVRMIETIRDGKPTTNFMSFGDSIKLEMFDVEGNTIFGAIDQQVSQYLKH”, the protein production entry is recorded as “failed”.
